In paper PMC9482650, “Quantitative fragmentomics allow affinity mapping of interactomes” (Nature Communications, 2022):
Substitutions are numbered along the chain they refer to.

Experiments:
Test in all cases: holdup assay
Design in all cases: key: below the threshold = too weak to quantify, mostly under pKd 3.1 to 4
Details in all cases: plain residues with an end cap or a label only (N-terminal biotin on a linker: ttds)
Inadl_1, Q8NI35 = molecular target: Inadl_1, Q8NI35
SCRIB_3, Q14160 = molecular target: SCRIB_3, Q14160
Sequence of SCRIB_3, Q14160 (Q14160 999-1103): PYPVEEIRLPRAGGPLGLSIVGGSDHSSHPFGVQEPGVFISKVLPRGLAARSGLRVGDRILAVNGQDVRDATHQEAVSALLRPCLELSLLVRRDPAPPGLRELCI

PTPN3, P26045 = molecular target: PTPN3, P26045
Sequence of PTPN3, P26045 (P26045 505-587): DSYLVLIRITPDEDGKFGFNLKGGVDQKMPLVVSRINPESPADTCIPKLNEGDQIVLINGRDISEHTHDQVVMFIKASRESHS

MAGI3_2, Q5TCQ9 = molecular target: MAGI3_2, Q5TCQ9
Sequence of MAGI3_2, Q5TCQ9 (Q5TCQ9 398-503): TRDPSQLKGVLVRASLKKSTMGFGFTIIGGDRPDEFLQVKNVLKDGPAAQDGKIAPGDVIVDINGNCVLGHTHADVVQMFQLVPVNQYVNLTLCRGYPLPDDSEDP

TJP3_3, O95049 = molecular target: T1, TJP3_3, O95049
T1 sequence (O95049 375-456, limits assumed, looked up): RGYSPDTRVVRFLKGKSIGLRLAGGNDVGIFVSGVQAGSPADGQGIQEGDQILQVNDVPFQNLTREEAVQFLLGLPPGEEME

MAST2, Q6P0Q8 = molecular target: MAST2, Q6P0Q8
Sequence of MAST2, Q6P0Q8 (Q6P0Q8 1099-1202): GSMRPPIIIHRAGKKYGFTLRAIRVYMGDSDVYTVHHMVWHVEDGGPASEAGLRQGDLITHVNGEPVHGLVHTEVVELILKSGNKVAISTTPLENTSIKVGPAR

DLG3_3, Q92796 = molecular target: T2, DLG3_3, Q92796
T2 sequence (Q92796 374-475, limits assumed, looked up): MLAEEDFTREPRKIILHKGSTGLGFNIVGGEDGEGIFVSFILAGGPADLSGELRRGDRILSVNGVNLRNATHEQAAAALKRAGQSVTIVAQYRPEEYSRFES

GRIP1_7, Q9Y3R0 = molecular target: T3, GRIP1_7, Q9Y3R0
T3 sequence (Q9Y3R0 999-1096, limits assumed, looked up): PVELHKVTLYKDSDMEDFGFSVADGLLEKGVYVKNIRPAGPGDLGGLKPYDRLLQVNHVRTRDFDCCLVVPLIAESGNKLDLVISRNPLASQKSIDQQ

GRIP1_2, Q9Y3R0 = molecular target: T4, GRIP1_2, Q9Y3R0
T4 sequence (Q9Y3R0 145-248, limits assumed, looked up): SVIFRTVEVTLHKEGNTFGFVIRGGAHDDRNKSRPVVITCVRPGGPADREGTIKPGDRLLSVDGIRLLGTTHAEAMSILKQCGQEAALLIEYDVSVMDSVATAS

ARHGEF12, Q9NZN5-2 = molecular target: ARHGEF12, Q9NZN5-2
Sequence of ARHGEF12, Q9NZN5-2 (Q9NZN5 other isoform, or with tags, fused parts or gaps): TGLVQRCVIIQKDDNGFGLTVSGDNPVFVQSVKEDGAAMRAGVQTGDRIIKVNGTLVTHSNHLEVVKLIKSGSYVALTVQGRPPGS

LIN7B, Q9HAP6 = molecular target: T5, LIN7B, Q9HAP6
T5 sequence (Q9HAP6 88-185, limits assumed, looked up): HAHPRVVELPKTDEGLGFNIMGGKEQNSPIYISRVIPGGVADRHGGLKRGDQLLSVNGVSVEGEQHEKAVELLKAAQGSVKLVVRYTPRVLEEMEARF

GORASP1, Q9BQQ3 = molecular target: GORASP1, Q9BQQ3
Sequence of GORASP1, Q9BQQ3 (Q9BQQ3 1-208): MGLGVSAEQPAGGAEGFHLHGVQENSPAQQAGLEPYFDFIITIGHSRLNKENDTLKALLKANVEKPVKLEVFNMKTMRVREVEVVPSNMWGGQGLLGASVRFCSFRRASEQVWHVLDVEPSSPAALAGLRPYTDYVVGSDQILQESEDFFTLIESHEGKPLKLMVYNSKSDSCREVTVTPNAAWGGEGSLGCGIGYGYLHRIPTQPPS

NHERF4_1, Q86UT5-2 = molecular target: NHERF4_1, Q86UT5-2
Sequence of NHERF4_1, Q86UT5-2 (Q86UT5 other isoform, or with tags, fused parts or gaps): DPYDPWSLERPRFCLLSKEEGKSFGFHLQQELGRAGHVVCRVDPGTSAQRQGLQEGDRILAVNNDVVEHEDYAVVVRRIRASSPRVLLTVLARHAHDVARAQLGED

SCRIB_2, Q14160 = molecular target: SCRIB_2, Q14160
Sequence of SCRIB_2, Q14160 (Q14160 857-960): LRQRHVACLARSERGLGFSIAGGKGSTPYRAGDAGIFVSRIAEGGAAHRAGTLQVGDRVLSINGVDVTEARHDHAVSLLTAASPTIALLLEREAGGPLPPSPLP

LIN7C, Q9NUP9 = molecular target: T6, LIN7C, Q9NUP9
T6 sequence (Q9NUP9 88-185, limits assumed, looked up): T5 sequence (Q9HAP6 88-185, limits assumed, looked up) with A2S, D13E, V35I, V40I, Q65H, S79K, R89K, A96S

SNTG2, Q9NY99 = molecular target: T7, SNTG2, Q9NY99
T7 sequence (Q9NY99 68-166, limits assumed, looked up): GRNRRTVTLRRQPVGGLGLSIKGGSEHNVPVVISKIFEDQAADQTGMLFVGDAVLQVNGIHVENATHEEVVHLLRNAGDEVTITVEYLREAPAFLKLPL

PARD3_3, Q8TEW0 = molecular target: PARD3_3, Q8TEW0
Sequence of PARD3_3, Q8TEW0 (Q8TEW0 582-685): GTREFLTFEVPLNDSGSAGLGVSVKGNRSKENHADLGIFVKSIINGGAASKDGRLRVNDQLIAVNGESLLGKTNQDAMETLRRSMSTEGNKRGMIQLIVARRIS

MAGI2_3, Q86UL8 = molecular target: MAGI2_3, Q86UL8
Sequence of MAGI2_3, Q86UL8 (Q86UL8 600-682): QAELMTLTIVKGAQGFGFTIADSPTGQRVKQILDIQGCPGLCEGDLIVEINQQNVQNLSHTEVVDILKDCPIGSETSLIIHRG

CASK, O14936 = molecular target: CASK, O14936
Sequence of CASK, O14936 (O14936 487-570): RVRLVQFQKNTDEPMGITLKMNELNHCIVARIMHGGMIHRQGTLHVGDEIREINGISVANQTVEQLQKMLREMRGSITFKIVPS

MAST1, Q9Y2H9 = molecular target: MAST1, Q9Y2H9
Sequence of MAST1, Q9Y2H9 (Q9Y2H9 962-1065): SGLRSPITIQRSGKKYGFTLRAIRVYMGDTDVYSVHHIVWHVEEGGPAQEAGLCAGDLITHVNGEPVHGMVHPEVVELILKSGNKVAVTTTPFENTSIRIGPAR

SCRIB_1, Q14160 = molecular target: SCRIB_1, Q14160
Sequence of SCRIB_1, Q14160 (Q14160 718-814): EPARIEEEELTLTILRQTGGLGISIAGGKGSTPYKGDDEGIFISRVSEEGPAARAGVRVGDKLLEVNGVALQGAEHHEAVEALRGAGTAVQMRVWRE

Inadl_8, Q8NI35 = molecular target: Inadl_8, Q8NI35
Sequence of Inadl_8, Q8NI35 (Q8NI35 1425-1530): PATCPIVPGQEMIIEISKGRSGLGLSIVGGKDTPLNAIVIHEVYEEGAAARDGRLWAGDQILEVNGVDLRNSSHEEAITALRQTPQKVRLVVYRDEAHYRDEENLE

AHNAK1, Q09666 = molecular target: AHNAK1, Q09666
Sequence of AHNAK1, Q09666 (Q09666 4-100): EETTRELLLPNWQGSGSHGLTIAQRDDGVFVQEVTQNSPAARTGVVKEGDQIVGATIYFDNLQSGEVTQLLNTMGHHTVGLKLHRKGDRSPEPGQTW

PDLIM1, O00151 = molecular target: PDLIM1, O00151
Sequence of PDLIM1, O00151 (O00151 1-87): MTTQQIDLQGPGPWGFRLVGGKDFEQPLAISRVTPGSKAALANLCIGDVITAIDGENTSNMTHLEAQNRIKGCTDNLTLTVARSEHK

TJP1_2, Q07157 = molecular target: TJP1_2, Q07157
Sequence of TJP1_2, Q07157 (Q07157 181-274): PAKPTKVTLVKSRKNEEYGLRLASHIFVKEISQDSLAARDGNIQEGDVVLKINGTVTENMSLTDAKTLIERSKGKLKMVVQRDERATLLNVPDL

LNX1_1, Q8TBB1 = molecular target: LNX1_1, Q8TBB1
Sequence of LNX1_1, Q8TBB1 (Q8TBB1 261-371): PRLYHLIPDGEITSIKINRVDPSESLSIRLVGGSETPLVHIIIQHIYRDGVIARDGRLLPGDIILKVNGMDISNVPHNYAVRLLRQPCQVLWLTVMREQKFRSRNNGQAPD

APBA1_1, Q02410 = molecular target: T8, APBA1_1, Q02410
T8 sequence (Q02410 651-752, limits assumed, looked up): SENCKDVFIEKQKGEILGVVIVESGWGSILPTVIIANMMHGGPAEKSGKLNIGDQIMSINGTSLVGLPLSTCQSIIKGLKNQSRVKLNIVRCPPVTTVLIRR

HTRA2, O43464 = molecular target: HTRA2, O43464
Sequence of HTRA2, O43464 (O43464 355-458): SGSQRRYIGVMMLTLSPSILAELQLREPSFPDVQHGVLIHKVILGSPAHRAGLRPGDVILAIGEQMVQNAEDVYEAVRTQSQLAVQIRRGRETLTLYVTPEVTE

SNX27, Q96L92 = molecular target: SNX27, Q96L92
NHERF2_2, Q15599 = molecular target: NHERF2_2, Q15599
Sequence of NHERF2_2, Q15599 (Q15599 142-238): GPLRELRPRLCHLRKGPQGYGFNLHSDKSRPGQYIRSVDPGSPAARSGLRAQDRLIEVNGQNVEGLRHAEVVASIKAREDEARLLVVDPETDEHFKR

MAGI2_5, Q86UL8 = molecular target: MAGI2_5, Q86UL8
Sequence of MAGI2_5, Q86UL8 (Q86UL8 915-1017): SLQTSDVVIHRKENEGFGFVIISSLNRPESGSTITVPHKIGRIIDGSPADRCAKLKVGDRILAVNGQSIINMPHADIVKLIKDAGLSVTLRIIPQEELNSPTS

Sequence of Inadl_1, Q8NI35 (Q8NI35 113-229): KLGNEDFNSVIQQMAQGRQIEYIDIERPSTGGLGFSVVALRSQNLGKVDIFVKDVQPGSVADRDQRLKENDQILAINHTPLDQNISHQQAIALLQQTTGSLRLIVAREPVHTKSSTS

B1: RPS6KA1, Q15418 (peptide)
chain: RRVRKLPSTTL
Inadl_1, Q8NI35
  pKd: below the threshold
SCRIB_3, Q14160
  pKd: 4.36
PTPN3, P26045
  pKd: 3.93
MAGI3_2, Q5TCQ9
  pKd: 4.23
TJP3_3, O95049
  pKd: 3.59
MAST2, Q6P0Q8
  pKd: 5.37
DLG3_3, Q92796
  pKd: below the threshold
GRIP1_7, Q9Y3R0
  pKd: 3.85
GRIP1_2, Q9Y3R0
  pKd: below the threshold
ARHGEF12, Q9NZN5-2
  pKd: 5.45
LIN7B, Q9HAP6
  pKd: below the threshold
GORASP1, Q9BQQ3
  pKd: below the threshold
NHERF4_1, Q86UT5-2
  pKd: 3.57
SCRIB_2, Q14160
  pKd: below the threshold
LIN7C, Q9NUP9
  pKd: below the threshold
SNTG2, Q9NY99
  pKd: 4.54
PARD3_3, Q8TEW0
  pKd: 3.71
MAGI2_3, Q86UL8
  pKd: 3.63
CASK, O14936
  pKd: below the threshold
MAST1, Q9Y2H9
  pKd: 4.68
SCRIB_1, Q14160
  pKd: 3.48
Inadl_8, Q8NI35
  pKd: below the threshold
AHNAK1, Q09666
  pKd: below the threshold
PDLIM1, O00151
  pKd: 3.49
TJP1_2, Q07157
  pKd: 3.51
LNX1_1, Q8TBB1
  pKd: 3.76
APBA1_1, Q02410
  pKd: below the threshold
HTRA2, O43464
  pKd: below the threshold
SNX27, Q96L92
  pKd: 3.5
NHERF2_2, Q15599
  pKd: 3.97
MAGI2_5, Q86UL8
  pKd: below the threshold

B2: MAP2K2, P36507 (peptide)
chain: QPGTPTRTAV
Inadl_1, Q8NI35
  pKd: below the threshold
SCRIB_3, Q14160
  pKd: below the threshold
PTPN3, P26045
  pKd: below the threshold
MAGI3_2, Q5TCQ9
  pKd: 3.84
TJP3_3, O95049
  pKd: 3.57
MAST2, Q6P0Q8
  pKd: 4.34
DLG3_3, Q92796
  pKd: below the threshold
GRIP1_7, Q9Y3R0
  pKd: below the threshold
GRIP1_2, Q9Y3R0
  pKd: below the threshold
ARHGEF12, Q9NZN5-2
  pKd: 3.66
LIN7B, Q9HAP6
  pKd: below the threshold
GORASP1, Q9BQQ3
  pKd: below the threshold
NHERF4_1, Q86UT5-2
  pKd: 3.52
SCRIB_2, Q14160
  pKd: below the threshold
LIN7C, Q9NUP9
  pKd: below the threshold
SNTG2, Q9NY99
  pKd: below the threshold
PARD3_3, Q8TEW0
  pKd: 3.54
MAGI2_3, Q86UL8
  pKd: 3.6
CASK, O14936
  pKd: below the threshold
MAST1, Q9Y2H9
  pKd: below the threshold
SCRIB_1, Q14160
  pKd: below the threshold
Inadl_8, Q8NI35
  pKd: 3.78
AHNAK1, Q09666
  pKd: below the threshold
PDLIM1, O00151
  pKd: 3.47
TJP1_2, Q07157
  pKd: below the threshold
LNX1_1, Q8TBB1
  pKd: 3.6
APBA1_1, Q02410
  pKd: below the threshold
HTRA2, O43464
  pKd: below the threshold
SNX27, Q96L92
  pKd: below the threshold
NHERF2_2, Q15599
  pKd: below the threshold
MAGI2_5, Q86UL8
  pKd: 3.59
